Experimental data as given in the Human Domainome abundance scans (Beltran et al. 2025).
± gives the uncertainty stated by the source.

Assay: abundance fitness (aPCA) (normalised: wild type 0, dead -1); higher = more abundant; growth selection in yeast, the domain comes from the species named
Details: Homo sapiens

Substance | abundance fitness
Lipoamide acyltransferase component of branched-chain alpha-keto acid dehydrogenase complex, mitochondrial R199I, P11182 | -0.142 ± 0.09
Lipoamide acyltransferase component of branched-chain alpha-keto acid dehydrogenase complex, mitochondrial R199K, P11182 | -0.033 ± 0.051
Lipoamide acyltransferase component of branched-chain alpha-keto acid dehydrogenase complex, mitochondrial R199L, P11182 | -0.173 ± 0.04
Lipoamide acyltransferase component of branched-chain alpha-keto acid dehydrogenase complex, mitochondrial R199M, P11182 | -0.088 ± 0.088
Lipoamide acyltransferase component of branched-chain alpha-keto acid dehydrogenase complex, mitochondrial R199P, P11182 | -0.784 ± 0.079
Lipoamide acyltransferase component of branched-chain alpha-keto acid dehydrogenase complex, mitochondrial R199Q, P11182 | 0.045 ± 0.045
Lipoamide acyltransferase component of branched-chain alpha-keto acid dehydrogenase complex, mitochondrial R199S, P11182 | -0.08 ± 0.048
Lipoamide acyltransferase component of branched-chain alpha-keto acid dehydrogenase complex, mitochondrial R199T, P11182 | -0.006 ± 0.062
Lipoamide acyltransferase component of branched-chain alpha-keto acid dehydrogenase complex, mitochondrial R199V, P11182 | -0.129 ± 0.044
Lipoamide acyltransferase component of branched-chain alpha-keto acid dehydrogenase complex, mitochondrial R199W, P11182 | -0.117 ± 0.046
Lipoamide acyltransferase component of branched-chain alpha-keto acid dehydrogenase complex, mitochondrial S189A, P11182 | -0.03 ± 0.04
Lipoamide acyltransferase component of branched-chain alpha-keto acid dehydrogenase complex, mitochondrial S189C, P11182 | -0.111 ± 0.071
Lipoamide acyltransferase component of branched-chain alpha-keto acid dehydrogenase complex, mitochondrial S189E, P11182 | -0.001 ± 0.042
Lipoamide acyltransferase component of branched-chain alpha-keto acid dehydrogenase complex, mitochondrial S189F, P11182 | -0.343 ± 0.058
Lipoamide acyltransferase component of branched-chain alpha-keto acid dehydrogenase complex, mitochondrial S189G, P11182 | -0.065 ± 0.039
Lipoamide acyltransferase component of branched-chain alpha-keto acid dehydrogenase complex, mitochondrial S189K, P11182 | -0.135 ± 0.068
Lipoamide acyltransferase component of branched-chain alpha-keto acid dehydrogenase complex, mitochondrial S189L, P11182 | -0.45 ± 0.046
Lipoamide acyltransferase component of branched-chain alpha-keto acid dehydrogenase complex, mitochondrial S189M, P11182 | -0.264 ± 0.061
Lipoamide acyltransferase component of branched-chain alpha-keto acid dehydrogenase complex, mitochondrial S189P, P11182 | -0.232 ± 0.068
Lipoamide acyltransferase component of branched-chain alpha-keto acid dehydrogenase complex, mitochondrial S189Q, P11182 | -0.097 ± 0.054
Lipoamide acyltransferase component of branched-chain alpha-keto acid dehydrogenase complex, mitochondrial S189R, P11182 | -0.09 ± 0.039
Lipoamide acyltransferase component of branched-chain alpha-keto acid dehydrogenase complex, mitochondrial S189T, P11182 | -0.033 ± 0.046
Lipoamide acyltransferase component of branched-chain alpha-keto acid dehydrogenase complex, mitochondrial S189V, P11182 | -0.199 ± 0.043
Lipoamide acyltransferase component of branched-chain alpha-keto acid dehydrogenase complex, mitochondrial S189Y, P11182 | -0.258 ± 0.19

Substance | abundance fitness
Lipoamide acyltransferase component of branched-chain alpha-keto acid dehydrogenase complex, mitochondrial S194A, P11182 | -0.564 ± 0.073
Lipoamide acyltransferase component of branched-chain alpha-keto acid dehydrogenase complex, mitochondrial S194C, P11182 | -0.47 ± 0.045
Lipoamide acyltransferase component of branched-chain alpha-keto acid dehydrogenase complex, mitochondrial S194E, P11182 | -0.504 ± 0.049
Lipoamide acyltransferase component of branched-chain alpha-keto acid dehydrogenase complex, mitochondrial S194F, P11182 | -0.917 ± 0.088
Lipoamide acyltransferase component of branched-chain alpha-keto acid dehydrogenase complex, mitochondrial S194G, P11182 | -0.319 ± 0.052
Lipoamide acyltransferase component of branched-chain alpha-keto acid dehydrogenase complex, mitochondrial S194I, P11182 | -0.738 ± 0.12
Lipoamide acyltransferase component of branched-chain alpha-keto acid dehydrogenase complex, mitochondrial S194K, P11182 | -0.378 ± 0.057
Lipoamide acyltransferase component of branched-chain alpha-keto acid dehydrogenase complex, mitochondrial S194M, P11182 | -0.628 ± 0.082
Lipoamide acyltransferase component of branched-chain alpha-keto acid dehydrogenase complex, mitochondrial S194N, P11182 | -0.287 ± 0.049
Lipoamide acyltransferase component of branched-chain alpha-keto acid dehydrogenase complex, mitochondrial S194P, P11182 | -0.694 ± 0.075
Lipoamide acyltransferase component of branched-chain alpha-keto acid dehydrogenase complex, mitochondrial S194R, P11182 | -0.314 ± 0.037
Lipoamide acyltransferase component of branched-chain alpha-keto acid dehydrogenase complex, mitochondrial S194T, P11182 | -0.013 ± 0.06
Lipoamide acyltransferase component of branched-chain alpha-keto acid dehydrogenase complex, mitochondrial S194V, P11182 | -0.864 ± 0.064
Lipoamide acyltransferase component of branched-chain alpha-keto acid dehydrogenase complex, mitochondrial S194W, P11182 | -0.937 ± 0.069
Lipoamide acyltransferase component of branched-chain alpha-keto acid dehydrogenase complex, mitochondrial T171A, P11182 | -0.215 ± 0.055
Lipoamide acyltransferase component of branched-chain alpha-keto acid dehydrogenase complex, mitochondrial T171C, P11182 | -0.282 ± 0.063
Lipoamide acyltransferase component of branched-chain alpha-keto acid dehydrogenase complex, mitochondrial T171D, P11182 | -0.035 ± 0.073
Lipoamide acyltransferase component of branched-chain alpha-keto acid dehydrogenase complex, mitochondrial T171E, P11182 | -0.268 ± 0.058
Lipoamide acyltransferase component of branched-chain alpha-keto acid dehydrogenase complex, mitochondrial T171F, P11182 | -0.028 ± 0.12
Lipoamide acyltransferase component of branched-chain alpha-keto acid dehydrogenase complex, mitochondrial T171K, P11182 | -0.061 ± 0.069
Lipoamide acyltransferase component of branched-chain alpha-keto acid dehydrogenase complex, mitochondrial T171L, P11182 | -0.632 ± 0.17
Lipoamide acyltransferase component of branched-chain alpha-keto acid dehydrogenase complex, mitochondrial T171M, P11182 | 0.031 ± 0.062
Lipoamide acyltransferase component of branched-chain alpha-keto acid dehydrogenase complex, mitochondrial T171N, P11182 | -0.012 ± 0.058
Lipoamide acyltransferase component of branched-chain alpha-keto acid dehydrogenase complex, mitochondrial T171P, P11182 | -0.422 ± 0.11
